Source: PMC3098719 (Molecular cell, 2008)
Where a chain is given by its changes, count along the chain named. In names and notes the source's numbering stands. One block for each binder: values may come before it.

Experiments:
[1] = target: T1, Bud32 R380E (M. jannaschii) (Methanococcus jannaschii, UniProt Q58530 328-535, R380E); experiment: pull-down
T1 sequence (looked up): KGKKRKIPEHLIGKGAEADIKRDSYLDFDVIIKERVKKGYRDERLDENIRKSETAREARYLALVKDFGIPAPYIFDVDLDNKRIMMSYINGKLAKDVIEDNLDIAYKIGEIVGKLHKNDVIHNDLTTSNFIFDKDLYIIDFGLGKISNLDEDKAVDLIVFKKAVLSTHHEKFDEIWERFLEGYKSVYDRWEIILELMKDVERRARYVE

[2] = target: T2, Bud32 V486Y (M. jannaschii) (Methanococcus jannaschii, UniProt Q58530 328-535, V486Y); experiment: pull-down
T2 sequence (looked up): T1 sequence (looked up) with E53R, V159Y

[3] = target: T3, Bud32 K365E (M. jannaschii) (Methanococcus jannaschii, UniProt Q58530 328-535, K365E); experiment: pull-down
T3 sequence (looked up): T1 sequence (looked up) with K38E, E53R

[4] = target: T4, Bud32 K489E (M. jannaschii) (Methanococcus jannaschii, UniProt Q58530 328-535, K489E); experiment: pull-down
T4 sequence (looked up): T1 sequence (looked up) with E53R, K162E

[5] = target: MJ1130 (Kae1-Bud32 fusion of Methanococcus jannaschii) as used for the complex with Cgi121 (Methanococcus jannaschii) (UniProt Q58530); experiment: crystal structure
[6] = target: T5, Bud32 (residues 328-535 of Methanococcus jannaschii MJ1130), untagged (Methanococcus jannaschii, UniProt Q58530 328-535); experiment: pull-down
T5 sequence (looked up): T1 sequence (looked up) with E53R

[7] = target: T6, Kae1 (residues 1-328 of Methanococcus jannaschii MJ1130), untagged (Methanococcus jannaschii, UniProt Q58530 1-328); experiment: pull-down
T6 sequence (looked up): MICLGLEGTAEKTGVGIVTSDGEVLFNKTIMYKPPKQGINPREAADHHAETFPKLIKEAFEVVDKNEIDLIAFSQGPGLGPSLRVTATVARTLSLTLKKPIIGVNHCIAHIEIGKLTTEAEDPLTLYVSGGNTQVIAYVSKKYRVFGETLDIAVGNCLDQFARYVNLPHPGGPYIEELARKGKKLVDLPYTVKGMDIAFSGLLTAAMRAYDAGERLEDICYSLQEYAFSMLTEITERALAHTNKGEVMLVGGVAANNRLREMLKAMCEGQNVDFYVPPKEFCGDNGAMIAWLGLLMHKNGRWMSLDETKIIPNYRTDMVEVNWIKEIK

[8] = target: the molecule itself; experiment: SEC
[9] = target: T7, GST-Kae1 (residues 1-328 of Methanococcus jannaschii MJ1130) (Methanococcus jannaschii, UniProt Q58530 1-328); experiment: pull-down
T7 sequence (looked up): T6 sequence (looked up)

[10] = target: T8, GST-Kae1 E236K (M. jannaschii) (Methanococcus jannaschii, UniProt Q58530 1-328, E236K); experiment: pull-down
T8 sequence (looked up): T6 sequence (looked up) with E236K

[11] = target: T9, GST-Kae1 E233R (M. jannaschii) (Methanococcus jannaschii, UniProt Q58530 1-328, E233R); experiment: pull-down
T9 sequence (looked up): T6 sequence (looked up) with E233R

binding result [1]: binds | binding result [2]: binds | binding result [3]: binds | binding result [4]: binds | stoichiometry N (Cgi121 per MJ1130) [5]: 1
B1: GST-Cgi121 (Methanococcus jannaschii MJ0187) (natural protein, UniProt Q57646 1-145, looked up)
chain: MIIRGIRGARINNEIFNLGLKFQILNADVVATKKHVLHAINQAKTKKPIAKSFWMEILVRASGQRQIHEAIKIIGAKDGNVCLICEDEETFRKIYELIGGEIDDSVLEINEDKERLIREIFKIRGFGNVVERVLEKIALIELKKE

binding result [6]: binds
B2: GST-Cgi121 A138R (M. jannaschii) (natural protein, Methanococcus jannaschii, UniProt Q57646 1-145, looked up)
chain: B1 chain with A138R

binding result [6]: binds
B3: GST-Cgi121 L139R (M. jannaschii) (natural protein, Methanococcus jannaschii, UniProt Q57646 1-145, looked up)
chain: B1 chain with L139R

binding result [6]: binds
B4: GST-Cgi121 L134E (M. jannaschii) (natural protein, Methanococcus jannaschii, UniProt Q57646 1-145, looked up)
chain: B1 chain with L134E

binding result [7]: binds
B5: GST-Pcc1 (Pyrococcus furiosus PF2011) (natural protein, UniProt Q8TZI1 1-82, looked up)
chain: MKAKRVQAKIEIEFPSEDVAKVVYEAVLYEHLSVPYRRSEIDFKLEGKKIILDIKATDSSALRGTVNSYLRWIKAAIDVIEV

B6: Pcc1 E30R (P. furiosus) (natural protein, Pyrococcus furiosus, UniProt Q8TZI1 1-82, looked up)
chain: B5 chain with E30R
stoichiometry N [8]: 2

binding result [9]: binds | binding result [10]: binds | binding result [11]: binds
B7: Pcc1 (Pyrococcus furiosus PF2011), untagged (natural protein, UniProt Q8TZI1 1-82, looked up)
chain: B5 chain

B8: Pcc1 V79R (P. furiosus) (natural protein, Pyrococcus furiosus, UniProt Q8TZI1 1-82, looked up)
chain: B5 chain with V79R
stoichiometry N [8]: 2

B9: Pcc1 A75Y/V79R (P. furiosus) (natural protein, Pyrococcus furiosus, UniProt Q8TZI1 1-82, looked up)
chain: B5 chain with A75Y, V79R
stoichiometry N [8]: 2

B10: Pcc1 A75Y (P. furiosus) (natural protein, Pyrococcus furiosus, UniProt Q8TZI1 1-82, looked up)
chain: B5 chain with A75Y
stoichiometry N [8]: 2
